# T1: cynomolgus IL-36R overexpressed on 293T-CynoIL36R-NFκB cells (cynomolgus monkey)
# T1 chain: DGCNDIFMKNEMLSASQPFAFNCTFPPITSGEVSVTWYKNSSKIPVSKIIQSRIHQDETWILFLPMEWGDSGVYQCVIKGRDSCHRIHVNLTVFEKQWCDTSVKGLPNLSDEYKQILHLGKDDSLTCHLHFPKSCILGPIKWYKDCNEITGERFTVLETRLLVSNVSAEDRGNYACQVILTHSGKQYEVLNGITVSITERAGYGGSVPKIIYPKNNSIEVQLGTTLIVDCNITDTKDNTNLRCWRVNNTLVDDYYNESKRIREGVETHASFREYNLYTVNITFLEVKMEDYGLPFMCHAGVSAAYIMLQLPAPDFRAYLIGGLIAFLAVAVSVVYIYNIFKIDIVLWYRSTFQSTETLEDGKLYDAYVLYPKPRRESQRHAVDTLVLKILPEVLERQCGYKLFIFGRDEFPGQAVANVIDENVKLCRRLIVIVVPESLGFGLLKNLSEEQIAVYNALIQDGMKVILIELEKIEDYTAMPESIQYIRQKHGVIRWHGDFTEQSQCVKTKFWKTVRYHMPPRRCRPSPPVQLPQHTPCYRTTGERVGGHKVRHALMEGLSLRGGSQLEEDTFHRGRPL
# T2: CynoIL36R-ECD mFc recombinant protein (cynomolgus monkey)
# T2 construct: Made in ExpiCHO, purified on Protein A; also called cynomolgus IL-36R extracellular region with mouse antibody heavy chain Fc
# T2 chain: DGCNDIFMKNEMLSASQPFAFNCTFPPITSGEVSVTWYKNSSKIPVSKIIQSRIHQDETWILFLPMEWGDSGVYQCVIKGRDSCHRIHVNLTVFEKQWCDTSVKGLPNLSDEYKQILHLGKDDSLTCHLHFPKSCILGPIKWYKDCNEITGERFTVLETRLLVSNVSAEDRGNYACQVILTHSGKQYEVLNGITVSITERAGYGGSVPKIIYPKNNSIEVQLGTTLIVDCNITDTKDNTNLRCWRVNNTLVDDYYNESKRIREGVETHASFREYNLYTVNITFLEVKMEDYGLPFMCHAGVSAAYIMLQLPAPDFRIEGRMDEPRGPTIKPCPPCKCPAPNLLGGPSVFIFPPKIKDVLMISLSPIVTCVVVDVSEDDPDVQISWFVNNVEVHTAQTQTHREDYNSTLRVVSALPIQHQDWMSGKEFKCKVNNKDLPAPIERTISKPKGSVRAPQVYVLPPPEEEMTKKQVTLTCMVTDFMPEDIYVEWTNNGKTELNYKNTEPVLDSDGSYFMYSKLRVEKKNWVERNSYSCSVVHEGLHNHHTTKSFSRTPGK
# B1: hz72C1-1.1 (antibody, human IgG4 S228P, kappa)
# heavy: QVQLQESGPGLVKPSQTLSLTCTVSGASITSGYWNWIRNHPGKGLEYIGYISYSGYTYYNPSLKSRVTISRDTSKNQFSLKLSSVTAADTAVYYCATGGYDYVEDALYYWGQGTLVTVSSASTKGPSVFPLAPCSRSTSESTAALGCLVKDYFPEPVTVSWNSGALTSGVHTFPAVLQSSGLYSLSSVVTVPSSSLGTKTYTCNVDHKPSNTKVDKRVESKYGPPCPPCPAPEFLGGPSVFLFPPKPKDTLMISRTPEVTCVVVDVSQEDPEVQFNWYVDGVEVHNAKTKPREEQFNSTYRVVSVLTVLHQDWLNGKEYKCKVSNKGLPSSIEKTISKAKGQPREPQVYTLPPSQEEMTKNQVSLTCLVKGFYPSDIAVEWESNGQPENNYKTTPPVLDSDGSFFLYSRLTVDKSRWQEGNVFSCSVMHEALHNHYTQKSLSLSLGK
# light: DIQMTQSPSSLSASVGDRVTITCRASSNVRYMYWYQQKPGKAPKLWIYLTSNLASGVPSRFSGSGSGTSYTLTISSLQPEDFATYYCQQFTTSPYTFGQGTKLEIKRTVAAPSVFIFPPSDEQLKSGTASVVCLLNNFYPREAKVQWKVDNALQSGNSQESVTEQDSKDSTYSLSSTLTLSKADYEKHKVYACEVTHQGLSSPVTKSFNRGEC
# notes: Humanized, human IgG4 / kappa; also called humanized 72C1 antibody 1.1
# B2: hz72C1-1.3 (antibody, human IgG4 S228P, kappa)
# heavy: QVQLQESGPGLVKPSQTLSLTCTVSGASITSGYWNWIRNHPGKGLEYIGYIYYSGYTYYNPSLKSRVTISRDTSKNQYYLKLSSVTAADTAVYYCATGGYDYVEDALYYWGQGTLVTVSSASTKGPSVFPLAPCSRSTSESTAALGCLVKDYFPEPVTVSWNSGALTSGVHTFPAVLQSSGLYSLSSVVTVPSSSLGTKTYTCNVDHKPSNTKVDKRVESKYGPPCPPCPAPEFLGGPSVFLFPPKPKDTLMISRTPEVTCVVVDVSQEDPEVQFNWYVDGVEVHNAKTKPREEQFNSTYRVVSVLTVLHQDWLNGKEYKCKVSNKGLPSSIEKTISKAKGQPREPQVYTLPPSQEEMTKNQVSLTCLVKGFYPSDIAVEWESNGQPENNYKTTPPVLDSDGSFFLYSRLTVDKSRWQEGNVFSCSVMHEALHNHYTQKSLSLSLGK
# light: B1 light
# notes: Humanized, human IgG4 / kappa
# B3: BI655130 (antibody, human IgG1, kappa, L234A L235A)
# heavy: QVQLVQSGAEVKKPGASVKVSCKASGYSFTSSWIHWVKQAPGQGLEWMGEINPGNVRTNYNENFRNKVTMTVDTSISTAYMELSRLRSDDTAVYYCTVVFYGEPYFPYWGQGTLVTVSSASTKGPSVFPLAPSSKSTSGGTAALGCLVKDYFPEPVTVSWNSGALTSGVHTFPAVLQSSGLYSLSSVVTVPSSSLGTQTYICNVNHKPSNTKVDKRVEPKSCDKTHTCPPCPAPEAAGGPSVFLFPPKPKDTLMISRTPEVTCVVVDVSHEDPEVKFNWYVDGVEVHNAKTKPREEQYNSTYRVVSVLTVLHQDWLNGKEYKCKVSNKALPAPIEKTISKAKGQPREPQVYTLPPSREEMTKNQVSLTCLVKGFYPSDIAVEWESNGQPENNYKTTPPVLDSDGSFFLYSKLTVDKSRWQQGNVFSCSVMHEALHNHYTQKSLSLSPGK
# light: QIVLTQSPGTLSLSPGERATMTCTASSSVSSSYFHWYQQKPGQAPRLWIYRTSRLASGVPDRFSGSGSGTDFTLTISRLEPEDAATYYCHQFHRSPLTFGAGTKLEIKRTVAAPSVFIFPPSDEQLKSGTASVVCLLNNFYPREAKVQWKVDNALQSGNSQESVTEQDSKDSTYSLSSTLTLSKADYEKHKVYACEVTHQGLSSPVTKSFNRGEC
# notes: also called Spesolimab
# B4: chimeric 72C1 antibody (antibody, human IgG4 S228P, kappa)
# heavy: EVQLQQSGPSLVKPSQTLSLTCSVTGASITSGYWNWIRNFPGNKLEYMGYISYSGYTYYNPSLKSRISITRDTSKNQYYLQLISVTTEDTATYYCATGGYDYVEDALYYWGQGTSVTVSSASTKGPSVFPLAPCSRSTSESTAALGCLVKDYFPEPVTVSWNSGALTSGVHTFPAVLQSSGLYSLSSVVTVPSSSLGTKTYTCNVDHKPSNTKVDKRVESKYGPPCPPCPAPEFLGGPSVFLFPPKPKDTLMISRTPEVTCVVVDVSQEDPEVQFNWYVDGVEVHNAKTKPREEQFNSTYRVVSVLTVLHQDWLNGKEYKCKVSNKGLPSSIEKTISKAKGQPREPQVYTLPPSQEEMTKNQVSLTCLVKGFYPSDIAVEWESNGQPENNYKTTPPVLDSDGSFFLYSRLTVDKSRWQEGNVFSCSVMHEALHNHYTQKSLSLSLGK
# light: EILLTQSPAIMSATLGEKVTMSCRASSNVRYMYWYQLKSGASPKLWIYLTSNLASGVPARFSGSGSGTSYSLTISSVEAEDAATYFCQQFTTSPYTFGGGTKLEIKRTVAAPSVFIFPPSDEQLKSGTASVVCLLNNFYPREAKVQWKVDNALQSGNSQESVTEQDSKDSTYSLSSTLTLSKADYEKHKVYACEVTHQGLSSPVTKSFNRGEC
# notes: Mouse variable regions on human IgG4 / kappa; also called xi72C1
# Target: T1, cynomolgus IL-36R overexpressed on …
# Experiment: cell-based or functional assay
IC50 (M); hIL36α; NFκB-luciferase [M],IC50 (M); hIL36β; NFκB-luciferase [M],IC50 (M); hIL36γ; NFκB-luciferase [M],Maximum inhibition rate %; hIL36α; NFκB-luciferase [%],Maximum inhibition rate %; hIL36β; NFκB-luciferase [%],Maximum inhibition rate %; hIL36γ; NFκB-luciferase [%],Binder
3.15e-09,3.09e-09,1.66e-09,101,100,104,B1
3.13e-09,2.7e-09,1.65e-09,101,101,103,B2
2.77e-08,5.63e-08,1.19e-08,49.1,60.8,83.1,B3

# Target: T2, CynoIL36R-ECD mFc recombinant protein
# Experiment: BLI (ForteBio Octet), antibody on ProA sensor, 1:1 model
# Protocol: The affinity of anti-IL-36R antibodies to CynoIL36R-ECD mFc and human IL-1Rrp2/IL-IR6 protein, His Tag (ACROBiosystems, IL2-H52H6) was measured by a ForteBio molecular interaction instrument. […] And then the biosensor was used to bind CynoIL36R-ECD mFc or human IL-1Rrp2/IL-1R6 protein, His Tag which was diluted by a gradient (the initial concentration was 200 nM, 2-fold gradient dilution), the response signals were detected in real time using a Fortebio molecular interaction instrument (SARTORIUS, octet red 96e), and association and dissociation curves were obtained. After the completion of dissociation in each cycle, the biosensor was regenerated for the next capture; the procedure was repeated until the affinity of the different anti-IL-36R antibodies for IL-36R was determined. The resulting data were analyzed by Fortebio Data Analysis 11.0 software in a 1:1 (Langmuir) binding model to determine kₐ (kₒₙ) and kd (koff) values, and the dissociation constant KD was calculated by KD=kd/kₐ. The detection method essentially followed the manufacturer's recommendations, and more information could be found at www.fortebio.com.
# Affinity, binding and blocking assays for humanized antibodies hz72C1-1.1, hz72C1-1.2, hz72C1-1.3, hz72C1-2.1, hz72C1-2.2 and hz72C1-2.3 as well as hz84C4-1.1, hz84C4-1.2, hz84C4-1.3, hz84C4-1.4, hz84C4-1.5, hz84C4-2.1, hz84C4-2.2, hz84C4-2.3, hz84C4-2.4 and hz84C4-2.5 were performed according to the methods of Example 4, Example 5. Example 6, Example 7 and Example 8.
Kd [nM],koff [s⁻¹],kon [M⁻¹ s⁻¹],Binder
0.66,1.51e-05,22800,B1
0.445,9.42e-06,21200,B2
2.46,7.26e-05,29500,B3
0.352,9.04e-06,25700,B4

# — patent publication US20240270857A1 (CHIA TAI TIANQING PHARMACEUTICAL GROUP, published 2024)
